T1: Abp1 SH3 (ABP1_YEAST), P15891
T1 chain: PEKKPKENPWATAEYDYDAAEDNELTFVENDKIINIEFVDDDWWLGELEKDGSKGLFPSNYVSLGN

T2: Myo5 SH3 (MYO5_YEAST), Q04439
T2 chain: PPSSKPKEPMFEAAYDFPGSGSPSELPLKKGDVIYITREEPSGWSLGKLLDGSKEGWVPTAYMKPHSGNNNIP

The first test addresses T1, Abp1 SH3 (ABP1_YEAST), P15891. The test is described as follows: SPOT array.
NHASENTPRDGKP [YLR356W 137-149] yielded a normalised SPOT signal, Boehringer light units (BLU); mean over the file's lines of this peptide of 97.

NATGNHTPKWFRP [YLR308W 199-211]: the normalised SPOT signal, Boehringer light units (BLU); mean over the file's lines of this peptide is 100.

For NGEEAEEVVVPEKP [YJL214W 46-59], the normalised SPOT signal, Boehringer light units (BLU); mean over the file's lines of this peptide is 539.

In the case of NESAPLQPFPERP [YFL041W 455-467], the normalised SPOT signal, Boehringer light units (BLU); mean over the file's lines of this peptide is 26.2.

In turn, NIEDITEPKPDKP [YDR363W 94-106] yielded a normalised SPOT signal, Boehringer light units (BLU); mean over the file's lines of this peptide of 75.1.

The molecule NATGKHFPKYFRP [YLR307W 189-201] came in with a normalised SPOT signal, Boehringer light units (BLU); mean over the file's lines of this peptide of 146.

On to MSKLLKHGWKPLRP [YJR126C 471-484], for which the normalised SPOT signal, Boehringer light units (BLU); mean over the file's lines of this peptide stood at 267.

With NEAAKPSFSFPGKP [YOR098C 607-620], the normalised SPOT signal, Boehringer light units (BLU); mean over the file's lines of this peptide was 38.

In turn, NIKVLLNPKLGKP [YLL007C 14-26] registered a normalised SPOT signal, Boehringer light units (BLU); mean over the file's lines of this peptide of 93.7.

As for NHTIWVGPGKDKP [YHR015W 379-391], the normalised SPOT signal, Boehringer light units (BLU); mean over the file's lines of this peptide amounted to 285.

As to NIPPPPPPPPPKP [YMR089C 153-165], the normalised SPOT signal, Boehringer light units (BLU); mean over the file's lines of this peptide turned out to be 38.2.

Molecule NIETHENERLPPRP [YAL023C 524-537] displayed a normalised SPOT signal, Boehringer light units (BLU); mean over the file's lines of this peptide of 117.

The molecule NSVDRHAFANPDKP [YLR153C 95-108] showed a normalised SPOT signal, Boehringer light units (BLU); mean over the file's lines of this peptide of 103.

Take NFEVSHKPTVEKP [YPL095C 323-335]: the normalised SPOT signal, Boehringer light units (BLU); mean over the file's lines of this peptide was 185.

As for NESPRNVPIMVKP [YLL043W 210-222], the normalised SPOT signal, Boehringer light units (BLU); mean over the file's lines of this peptide stood at 217.

Molecule NDRNNADPEKKKP [YDR457W 2434-2446] displayed a normalised SPOT signal, Boehringer light units (BLU); mean over the file's lines of this peptide of 206.

For NIPKPHIPYFMKP [YBR286W 82-94], the normalised SPOT signal, Boehringer light units (BLU); mean over the file's lines of this peptide amounted to 1120.

The molecule NEDELDSPVQKKP [YKR086W 102-114] gave a normalised SPOT signal, Boehringer light units (BLU); mean over the file's lines of this peptide of 54.4.

NEYKGLITIIPSKP [YOL152W 549-562] showed a normalised SPOT signal, Boehringer light units (BLU); mean over the file's lines of this peptide of 77.6.

MTSNNLPPGKRKP [YBR222C 343-355] showed a normalised SPOT signal, Boehringer light units (BLU); mean over the file's lines of this peptide of 4880.

MTPGASANALPPKP [YDL195W 796-809] registered a normalised SPOT signal, Boehringer light units (BLU); mean over the file's lines of this peptide of 91.9.

NHAINRIPIKLRP [YGL156W 1061-1073]: the normalised SPOT signal, Boehringer light units (BLU); mean over the file's lines of this peptide was 3450.

MTAAKPNPYAAKP [YDL182W 1-13] showed a normalised SPOT signal, Boehringer light units (BLU); mean over the file's lines of this peptide of 2430.

With NHGFLLPPENIKP [YHR132C 397-409], the normalised SPOT signal, Boehringer light units (BLU); mean over the file's lines of this peptide amounted to 6.9.

On to NESFSLPPPQPKP [YFL044C 78-90], for which the normalised SPOT signal, Boehringer light units (BLU); mean over the file's lines of this peptide stood at 61.2.

As for NDRFSHTPQQQRP [YNL263C 17-29], the normalised SPOT signal, Boehringer light units (BLU); mean over the file's lines of this peptide was 164.

With NDEEIKKPTDGKP [YMR012W 785-797], the normalised SPOT signal, Boehringer light units (BLU); mean over the file's lines of this peptide was 33.6.

In turn, MSISSKIRPTPRKP [YER118C 1-14] gave a normalised SPOT signal, Boehringer light units (BLU); mean over the file's lines of this peptide of 2450.

NIKMASFLPVPEKP [YNL206C 122-135]: the normalised SPOT signal, Boehringer light units (BLU); mean over the file's lines of this peptide was found to be 387.

A further test concerns the target T2, Myo5 SH3 (MYO5_YEAST), Q04439. The test is described as follows: SPOT array.
PLFGLSIPKTPTLK [YBL035C 102-115]: the normalised SPOT signal, Boehringer light units (BLU); mean over the file's lines of this peptide was found to be 122.

Molecule PFSSMKEPFIPQSS [YBR172C 147-160] displayed a normalised SPOT signal, Boehringer light units (BLU); mean over the file's lines of this peptide of 411.

The molecule NPQSLARPPPPKRI [YKL139W 28-41] yielded a normalised SPOT signal, Boehringer light units (BLU); mean over the file's lines of this peptide of 248.

PEDFLPPPPKPHFA [YLR285W 17-30] gave a normalised SPOT signal, Boehringer light units (BLU); mean over the file's lines of this peptide of 126.

PEVLMDQPYSPLSD [YAR018C 257-270] displayed a normalised SPOT signal, Boehringer light units (BLU); mean over the file's lines of this peptide of 78.7.

Take PEVHHHSPGVPSLV [YLR229C 99-112]: the normalised SPOT signal, Boehringer light units (BLU); mean over the file's lines of this peptide came to 331.

The molecule NPLYWLLPSHPYTI [YGL160W 297-310] gave a normalised SPOT signal, Boehringer light units (BLU); mean over the file's lines of this peptide of 165.

PAPPPPPPPPPPP [YNL271C 1278-1290] came in with a normalised SPOT signal, Boehringer light units (BLU); mean over the file's lines of this peptide of 53300.

Molecule PLAPLPPPPPPSVA [YLR337C 421-434] registered a normalised SPOT signal, Boehringer light units (BLU); mean over the file's lines of this peptide of 4750.

PEVKHFSPSTPIML [YKR055W 169-182] displayed a normalised SPOT signal, Boehringer light units (BLU); mean over the file's lines of this peptide of 93.7.

As for PFIDYEFPHLPNEL [YOR037W 215-228], the normalised SPOT signal, Boehringer light units (BLU); mean over the file's lines of this peptide worked out at 98.9.

NLHGYGHPNPPNEK [YHR135C 370-383] returned a normalised SPOT signal, Boehringer light units (BLU); mean over the file's lines of this peptide of 217.

The molecule PFYTMPDPANPKYS [YLL018C 454-467] came in with a normalised SPOT signal, Boehringer light units (BLU); mean over the file's lines of this peptide of 145.

For PEPTMGSPDAPPLV [YLR357W 573-586], the normalised SPOT signal, Boehringer light units (BLU); mean over the file's lines of this peptide is 107.

NLLSLENPVVPSHY [YIL137C 4-17]: the normalised SPOT signal, Boehringer light units (BLU); mean over the file's lines of this peptide was 75.6.

With PEHLFNNPQNPMDF [YBR238C 623-636], the normalised SPOT signal, Boehringer light units (BLU); mean over the file's lines of this peptide stood at 157.

Turning to PETRMDLPFSPEVN [YDR171W 234-247], the normalised SPOT signal, Boehringer light units (BLU); mean over the file's lines of this peptide was 130.

In turn, NPFPFPIPEIPSTQ [YOR181W 270-283] displayed a normalised SPOT signal, Boehringer light units (BLU); mean over the file's lines of this peptide of 86.5.

In turn, NPGSMSMPGVPTSM [YNL288W 26-39] had a normalised SPOT signal, Boehringer light units (BLU); mean over the file's lines of this peptide of 190.

With PLNQLPNPAMPLLH [YER169W 383-396], the normalised SPOT signal, Boehringer light units (BLU); mean over the file's lines of this peptide amounted to 104.

In the case of PEGVFSIPAPPPNV [YGR094W 179-192], the normalised SPOT signal, Boehringer light units (BLU); mean over the file's lines of this peptide amounted to 82.5.

The molecule PLPTFSAPSLPQQS [YLR337C 659-672] yielded a normalised SPOT signal, Boehringer light units (BLU); mean over the file's lines of this peptide of 47000.

In the case of PFGTFTLPADPEYK [YNL134C 307-320], the normalised SPOT signal, Boehringer light units (BLU); mean over the file's lines of this peptide worked out at 172.

On to NLAPFTQPDFPFQT [YOR260W 14-27], for which the normalised SPOT signal, Boehringer light units (BLU); mean over the file's lines of this peptide came out at 81.4.

For the origin of these results see publication PMC314469, “Protein Interaction Networks by Proteome Peptide Scanning” (PLoS Biology, 2004).
